Article PMC3448853
One block for each substance: values may come before it.

What was measured:
Test in all cases: SEC
[1] = target: aglycosylated Fc5 (E382V/M428I) variant of human IgG1 Fc (human)
[2] = target: aglycosylated human IgG1 Fc (wild type), E. coli expressed (human)
[3] = target: glycosylated human Fc (wild type), Bethyl Laboratories (human)

stoichiometry N [1]: 2
Substance: aglycosylated Fc5 (E382V/M428I) variant of human IgG1 Fc (domain or fragment)

stoichiometry N [2]: 2
Substance: aglycosylated human IgG1 Fc (wild type), E. coli expressed (domain or fragment)

stoichiometry N [3]: 2
Substance: glycosylated human Fc (wild type), Bethyl Laboratories (domain or fragment)
